Reference: doi:10.1101/2021.01.21.427698 (bioRxiv, 2021)
Numbering of substitutions follows the chain as printed.

B1: SEPT2-msfGFP human septin octamers containing SEPT9_i3 (complex)
chain 1: MSKQQPTQFINPETPGYVGFANLPNQVHRKSVKKGFEFTLMVVGESGLGKSTLINSLFLTDLYPERVIPGAAEKIERTVQIEASTVEIEERGVKLRLTVVDTPGYGDAINCRDCFKTIISYIDEQFERYLHDESGLNRRHIIDNRVHCCFYFISPFGHGLKPLDVAFMKAIHNKVNIVPVIAKADTLTLKERERLKKRILDEIEEHNIKIYHLPDAESDEDEDFKEQTRLLKASIPFSVVGSNQLIEAKGKKVRGRLYPWGVVEVENPEHNDFLKLRTMLITHMQDLQEVTQDLHYENFRSERLKRGGRKVENEDMNKDQILLEKEAELRRMQEMIARMQAQMQMQMQGGDGDGGALGHHV
chain 2: MAATDIARQVGEGCRTVPLAGHVGFDSLPDQLVNKSVSQGFCFNILCVGETGLGKSTLMDTLFNTKFEGEPATHTQPGVQLQSNTYDLQESNVRLKLTIVSTVGFGDQINKEDSYKPIVEFIDAQFEAYLQEELKIRRVLHTYHDSRIHVCLYFIAPTGHSLKSLDLVTMKKLDSKVNIIPIIAKADAISKSELTKFKIKITSELVSNGVQIYQFPTDDESVAEINGTMNAHLPFAVIGSTEELKIGNKMMRARQYPWGTVQVENEAHCDFVKLREMLIRVNMEDLREQTHTRHYELYRRCKLEEMGFKDTDPDSKPFSLQETYEAKRNEFLGELQKKEEEMRQMFVQRVKEKEAELKEAEKELHEKFDRLKKLHQDEKKKLEDKKKSLDDEVNAFKQRKTAAELLQSQGSQAGGSQTLKRDKEKKN
chain 3: MSVSARSAAAEERSVNSSTMVAQQKNLEGYVGFANLPNQVYRKSVKRGFEFTLMVVGESGLGKSTLINSLFLTDLYSPEYPGPSHRIKKTVQVEQSKVLIKEGGVQLLLTIVDTPGFGDAVDNSNCWQPVIDYIDSKFEDYLNAESRVNRRQMPDNRVQCCLYFIAPSGHGLKPLDIEFMKRLHEKVNIIPLIAKADTLTPEECQQFKKQIMKEIQEHKIKIYEFPETDDEEENKLVKKIKDRLPLAVVGSNTIIEVNGKRVRGRQYPWGVAEVENGEHCDFTILRNMLIRTHMQDLKDVTNNVHYENYRSRKLAAVTYNGVDNNKNKGQLTKSPLAQMEEERREHVAKMKKMEMEMEQVFEMKVKEKVQKLKDSEAELQRRHEQMKKNLEAQHKELEEKRRQFEDEKANWEAQQRILEQQNSSRTLEKNKKKGKIF
chain 4: MERDRISALKRSFEVEEVETPNSTPPRRVQTPLLRATVASSTQKFQDLGVKNSEPSARHVDSLSQRSPKASLRRVELSGPKAAEPVSRRTELSIDISSKQVENAGAIGPSRFGLKRAEVLGHKTPEPAPRRTEITIVKPQESAHRRMEPPASKVPEVPTAPATDAAPKRVEIQMPKPAEAPTAPSPAQTLENSEPAPVSQLQSRLEPKPQPPVAEATPRSQEATEAAPSCVGDMADTPRDAGLKQAPASRNEKAPVDFGYVGIDSILEQMRRKAMKQGFEFNIMVVGQSGLGKSTLINTLFKSKISRKSVQPTSEERIPKTIEIKSITHDIEEKGVRMKLTVIDTPGFGDHINNENCWQPIMKFINDQYEKYLQEEVNINRKKRIPDTRVHCCLYFIPATGHSLRPLDIEFMKRLSKVVNIVPVIAKADTLTLEERVHFKQRITADLLSNGIDVYPQKEFDEDSEDRLVNEKFREMIPFAVVGSDHEYQVNGKRILGRKTKWGTIEVENTTHCEFAYLRDLLIRTHMQNIKDITSSIHFEAYRVKRLNEGSSAMANGVEEKEPEAPEM
B2: recombinant human septin octamers containing SEPT9_i1 (nonfluorescent) (complex)
chain 1: B1 chain 1
chain 2: B1 chain 2
chain 3: B1 chain 3
chain 4: MKKSYSGGTRTSSGRLRRLGDSSGPALKRSFEVEEVETPNSTPPRRVQTPLLRATVASSTQKFQDLGVKNSEPSARHVDSLSQRSPKASLRRVELSGPKAAEPVSRRTELSIDISSKQVENAGAIGPSRFGLKRAEVLGHKTPEPAPRRTEITIVKPQESAHRRMEPPASKVPEVPTAPATDAAPKRVEIQMPKPAEAPTAPSPAQTLENSEPAPVSQLQSRLEPKPQPPVAEATPRSQEATEAAPSCVGDMADTPRDAGLKQAPASRNEKAPVDFGYVGIDSILEQMRRKAMKQGFEFNIMVVGQSGLGKSTLINTLFKSKISRKSVQPTSEERIPKTIEIKSITHDIEEKGVRMKLTVIDTPGFGDHINNENCWQPIMKFINDQYEKYLQEEVNINRKKRIPDTRVHCCLYFIPATGHSLRPLDIEFMKRLSKVVNIVPVIAKADTLTLEERVHFKQRITADLLSNGIDVYPQKEFDEDSEDRLVNEKFREMIPFAVVGSDHEYQVNGKRILGRKTKWGTIEVENTTHCEFAYLRDLLIRTHMQNIKDITSSIHFEAYRVKRLNEGSSAMANGVEEKEPEAPEM
B3: recombinant human septin octamers containing SEPT9_i3 (nonfluorescent) (complex)
chain 1: B1 chain 1
chain 2: B1 chain 2
chain 3: B1 chain 3
chain 4: B1 chain 4
B4: recombinant mammalian SEPT9_i3-containing octamers (mouse SEPT2, human SEPT6, human SEPT7ΔN19, human SEPT9_i3) (complex)
chain 1: B1 chain 1 with V67I, N207S, G352S, G354S, H359Q
chain 2: B1 chain 2
chain 3: MVAQQKNLEGYVGFANLPNQVYRKSVKRGFEFTLMVVGESGLGKSTLINSLFLTDLYSPEYPGPSHRIKKTVQVEQSKVLIKEGGVQLLLTIVDTPGFGDAVDNSNCWQPVIDYIDSKFEDYLNAESRVNRRQMPDNRVQCCLYFIAPSGHGLKPLDIEFMKRLHEKVNIIPLIAKADTLTPEECQQFKKQIMKEIQEHKIKIYEFPETDDEEENKLVKKIKDRLPLAVVGSNTIIEVNGKRVRGRQYPWGVAEVENGEHCDFTILRNMLIRTHMQDLKDVTNNVHYENYRSRKLAAVTYNGVDNNKNKGQLTKSPLAQMEEERREHVAKMKKMEMEMEQVFEMKVKEKVQKLKDSEAELQRRHEQMKKNLEAQHKELEEKRRQFEDEKANWEAQQRILEQQNSSRTLEKNKKKGKIF
chain 4: B1 chain 4
B5: recombinant mammalian SEPT2-, SEPT6-, SEPT7-containing hexamers (mouse SEPT2, human SEPT6, human SEPT7ΔN19) (complex)
chain 1: B1 chain 1 with V67I, N207S, G352S, G354S, H359Q
chain 2: B1 chain 2
chain 3: B4 chain 3

Assays:
[1] = target: the molecule itself; assay: spinning disk fluorescence microscopy of septin polymerisation
[2] = target: the molecule itself; assay: negative-stain electron microscopy of septin polymerisation

Protein	binding result [1]	binding result [2]
B1	binds	–
B2	–	binds
B3	–	binds
B4	–	binds
B5	–	binds
